The values that follow come from the DeepSol protein solubility set.

This data set can be described thus: soluble on expression in E. coli; label from the status in PepcDB or PDB records.
For the sequence “MGSDKIHHHHHHMRAVRLHAKWDPRPEFKLGPKDIEGKLTWLGSKVWRYPEVRVEEVPEPRIEKPTEIIIKVKACGICGSDVHMAQTDEEGYILYPGLTGFPVTLGHEFSGVVVEAGPEAINRRTNKRFEIGEPVCAEEMLWCGHCRPCAEGFPNHCENLNELGFNVDGAFAEYVKVDAKYAWSLRELEGVYEGDRLFLAGSLVEPTSVAYNAVIVRGGGIRPGDNVVILGGGPIGLAAVAILKHAGASKVILSEPSEVRRNLAKELGADHVIDPTKENFVEAVLDYTNGLGAKLFLEATGVPQLVWPQIEEVIWRARGINATVAIVARADAKIPLTGEVFQVRRAQIVGSQGHSGHGTFPRVISLMASGMDMTKIISKTVSMEEIPEYIKRLQTDKSLVKVTMLNE”, the “soluble on expression in E. coli” value was “not soluble”.

Consider “MGSDKIHHHHHHMSIFFLNNGIMNILQEYSVLNAKVIIYEENGIGYYKVNEPNLDQNEIEILNSILEYIYSTPSVPNIEETVVKILKNKGISDQGIIEKIIYYLRKRIGYDELTVPLADPYVEEIECKGFSYPVTVVHRIVTRFPRLYTNIILEQEDHVLKVIEKLANKADKPVSIAKPYLEFSLPEGHRVAATVSREVSLPGSTFDIRKFPLKPISPISLIKNESISSLMLAYIWFLLDYKPFFLIIGSTGSGKTTLLNSILSMINPFFKVITIEDTPEINIIHDNWIRFFARQSISSQFEVSLMDLAKLSLRYRPDYLVIGEIRGKEIEALVHASASGHGSLATFHAGNPHEALTRLLSLLNKDVAKLFLQNLWGIIVLGTLRDRNGNIRRIIRSIYEIVYTRGKLRFRPVLRWSFSSNTFMPNNIDDLIKRSYRISYISKTYEIPISEITKEISNRVKTLNNFVSNNILDLEEFSVYLKKISQGDKVETKAI”, for which the “soluble on expression in E. coli” value is reported as “not soluble”.

Turning to “MIKIKENRMSQSNVIIVHGAYGHPFENWFNWMKTELESLGIECFVPQLPTPDGQELKNWLHVFNSTVSPMITHDTILIGHSLGSAFLLRWLEQANQSVFSTILAGSFIGTVGIQKFDKINESFFENGFDWHSIINKSKQFFCYHGSNDPYISRSNFNFIANNLQARKIIISQGGHLNEAAGFSSFPQLLIQLKSLLGINYGKFI”, the “soluble on expression in E. coli” value is reported as “not soluble”.

As for “KTSILLLLMIATALPSFGGNGNGNGTDSLQATRYVTRATMYGVGYTNVFDTYLSPQEYKGIEFRISRETMRMTTLGDGNVSVQNFFQANLAYTHNRVDNNNTFAGLVNWNYGLHYQFRITDNFKLLAGGMGDFNGGFVYNLRNTNNPASARAYINLDASGMAIWHTKIKNYPLALRYQVNLPVIGVMFSPHYGQSYYEIFTLGHASGVIRFTSLHNQPALRQMLSVDFPIRYTKMRLSYLCDLQQSKLNGIKTHTYSQVFMVGFVHDLFRIRNKNGTPLPPAVRAY”, the “soluble on expression in E. coli” value is reported as “not soluble”.

For “HAEVIASGRLEKCVVDGVTEELDCQEKVVVTLTVGNGQSLQTEALEFSLSCLNSPDGRCPCSCSAADPTCACRDLAAPLRVSLTKSPLWASYPLQYLSSFNWKPLEVILRPSNKVCKDGDWEDSPTCGWFSQGGVRVADSQGFCCECSSSQVWDDTFGSSKERTRANLDCDFWSDPLDILIGRKPVSAHCLTFDPQWYSGYELGAASLQFEIAITVEVPTAPSPTTATTSATPRTNNSSSANSTNSTNSPAPQFLSPPAPSTREVLHLGPSVPLASSASRLLSAKLLGDLAMYTQLPAISNQVLMVPQPPAAAAATGSPLDATLATNRSAWMLLDKTMLSMDGLACDKVGTGFSAFRYQPSGCGRAPQACLSGQLKDLWEADLARIADGRVPLYMITRFTGGSDTTLQSFSGGPLSFALPVTSHSQSLVTLSVAADGVRLVTNRSPGKITGAAVCRFAGTSCGGFEAVAARGYIYVNITNTGRLDSDYTLTVSNCSSNVRPIEARTLAVRAGSAASLDPPMELYVEDQAAAAARTCTVSLYDSVGAVTDSLTLSFYTNATQLVVKPSGGYNGTGDGAGVKRNGTDCSTACTNPIDVLCFVTKKCWSKFGR”, the “soluble on expression in E. coli” value is “not soluble”.

On to “MAALTASCIDLNIQGNGAYSVLKQLATIALQNGFITDSHQFLQTLLLREKMHSTGFGSGVAVPHGKSACVKQPFVLFARKAQAIDWKASDGEDVNCWICLGVPQSGEEDQVKIIGTLCRKIIHQEFIHQLQQGDTDQVLALLNQTLSS”, for which the “soluble on expression in E. coli” value is recorded as “not soluble”.

In the case of “MAAHFDLTDLQLLVHIGDWHSLTRGAEKSHLSLPAASTRVKNLEEHFGTQLLYRTSQGVTLTPSGEAMLRHARTVMQQVEQMRGDMQEFARGVKGHVRVLANTTAMTEFMPAVLARYLAAHPDVNVELRERLSYLVVRAVADGSADIGVVAGCAPDQKLQFIPYRKDRLVVVTPAGHRLAAEESVAFADTLADDYVGLSEWSAIHPFLVQAAASLGRTFKFRVEVGNFEAVCRMIESGVGIGVIPESAALRYARNLDIALVGLTDEWAVRELQICVKNLDSLPVFARELVETLVADGDAAG”, the “soluble on expression in E. coli” value was “soluble”.

With “MVTFMITSALHRAADWAKSVFSSAALGDPRRTARLVNVAAQLAKYSGKSITISSEGSKAAQEGAYRFIRNPNVSAEAIRKAGAMQTVKLAQEFPELLAIEDTTSLSYRHQVAEELGKLGSIQDKSRGWWVHSVLLLEATTFRTVGLLHQEWWMRPDDPADADEKESGKWLAAAATSRLRMGSMMSNVIAVCDREADIHAYLQDKLAHNERFVVRSKHPRKDVESGLYLYDHLKNQPELGGYQISIPQKGVVDKRGKRKNRPARKASLSLRSGRITLKQGNITLNAVLAEEINPPKGETPLKWLLLTSEPVESLAQALRVIDIYTHRWRIEEFHKAWKTGAGAERQRMEEPDNLERMVSILSFVAVRLLQLRESFTPPQALRAQGLLKEAEHVESQSAETVLTPDECQLLGYLDKGKRKRKEKAGSLQWAYMAIARLGGFMDSKRTGIASWGALWEGWEALQSKLDGFLAAKDLMAQGIKIG”, the “soluble on expression in E. coli” value was “soluble”.

As to “MTTVSVQIPAGWPATEERARAVQDELRARVVLDEPGPPPGTGRVTGVDVAYDDERDVVAAAAVVLDAGTLAVVAEATAVGRISFPYVPGLLAFREIPTVLAALEALPCPPGLVVCDGYGLAHPRRFGLASHLGVLTGLPTIGVAKNPFTFTHDDPDTPRGSTSPLLAGAEEVGRAVRTRDGVKPVFVSVGHRVGLGNACAHTLALTPAYRLPETTRRADALCRAALRDAAYRALEHHHHHH”, the “soluble on expression in E. coli” value is “not soluble”.

For the sequence “MGSDKIHHHHHHMDKNPLVYEYSIGKRKPYDYDYGNRQGNQNAGCPFCDVRHLVNIFEKDGDKIWLKNKYPTLQDTDQTILIESSDHQGDISTYTREDNQELMKFALKCFQKMYNSGRYKSVLWYKNFGPKSDGSLTHPHMQIVGLYHKDGYHDIGPDNFKGFEVGKSGSVEMNLSAYPVQGYQEVNIITHDNTNLGTWADLIQKGTQYVRSVLSHGVDSYNLFFYPINDGQGTCCKIIPRFYASPYFVGYKISQVDDSDTLKWEAERLKGFVNGGILH”, the “soluble on expression in E. coli” value is “not soluble”.

Turning to “MNLVHTPNANRLHIALFGKRNSGKSSLINALTGQDTALVSDTPGTTTDSVQKAMEIHGIGPCLFIDTPGFDDEGELGNRRIERTWKAVEKTDIALLLCAGGGSAEETGEPDFTEELHWLEQLKAKNIPTILLINKADIRKNTASLAIRIKETFGSQPIPVSAKEKTGVELIRQAILEKLPEDFDQQSITGSLVTEGDLVLLVMPQDIQAPKGRLILPQVQTMRELLDKKCLIMSCTTDKLQETLQALSRPPKLIITDSQVFKTVYEQKPEESRLTSFSVLFAGYKGDIRYYVKSASAIGSLTESSRVLIAEACTHAPLSEDIGRVKLPHLLRKRIGEKLSIDIVAGTDFPQDLTPYSLVIHCGACMFNRKYVLSRIERARLQNVPMTNYGVAIAFLNGILNQIEYLEHHHHHH”, the “soluble on expression in E. coli” value is recorded as “not soluble”.

For the sequence “MNIQKMYTAVDVHVNGEAFRVMKDVPCKYYYSLEQLNEQFSGELAEEMKLLLNEPRGFIGLNGCIVVPSIHNEVDAAVLFFNHEGSIPLHYGGIVAVITMLLESGYLKKRESNQYKIETLSGIFLVHAYVENDEVISVSFESKLCYLIEENLQVGNVSYSLIQADKVYAVVEKGAYSPEIRVENISELKRWGEATLQAIQKQSLIKRLILVDPSQKEKNHIKSITFHEDNFIVRSPGFVSTIVSYVHALFKNDYMADKPFKNESIFNSFITVEKVKKEELGYIFRFESRGFITGMQTFLLDPTDPFPAGFLLKLEHHHHHH”, the “soluble on expression in E. coli” value is “not soluble”.

As for “MYRKEWQDPDRIVDQLPISPGFDIVDLGCGPGFFTLPLASRTDGKVYAVDASDEMIEILKERIDGHSNIIPVKARAENIPIPDGTVDLVFIANAFHDFDDRDAVLGEIYRILRDGGYLVDIDWKKDETTHGPPVDIRIDRKDALLLISSHNFDIVKEIEAGAHHYGLLFRKN”, the “soluble on expression in E. coli” value is “not soluble”.

As for “MAHHHHHHMSQKNKKVYDTQNEQENTNSSSNSSSNSDKEIQKDKEEYKKGENNFSILNVEEVNIIELSREELYKVCAELQQKELEALKYIYVLDSELNIKYENDEDKLTIVEINLNDQNISNNHINFTFELPKDYPLGSISIINVTVKNFTPDTNNYINEEVYRYLQRYNEQRECILPVIYKVNEIIENIIQYKEEPGEKSLSSSTEGRSDFDQEQTFNEWDNKNKQRKADIVCFPELSYSMNFSKRPNILARRLCYSHHILSLVKRSCIIKWAKQLKIGGYSKIGYPGIIVCEGPKDEVDFYINSLNKLRWKHFDCRGMEDIELDENENLDDARVLPTTVRELDAKSMRTLSDICTQCGLRDLFLTSMKIYNNNDKKGSVKEKNKNGEENKPGNTKDILKEKGKKKKKRSSK”, the “soluble on expression in E. coli” value is reported as “not soluble”.

As for “MSAFTPASEVLLRHSDDFEQSRILFAGDLQDDLPARLDTAASRAHTQQFHHWQVLSRQMGDNARFSLVATADDVADCDTLIYYWPKNKPEAQFQLMNLLSLLPVGTDIFVVGENRSGVRSAEQMLADYAPLNKVDSARRCGLYFGRLEKQPVFDAEKFWGEYSVDGLTVKTLPGVFSRDGLDVGSQLLLSTLTPHTKGKVLDVGCGAGVLSVAFARHSPKIRLTLCDVSAPAVEASRATLAANGVEGEVFASNVFSEVKGRFDMIISNPPFHDGMQTSLDAAQTLIRGAVRHLNSGGELRIVANAFLPYPDVLDETFGFHEVIAQTGRFKVYRAIMTRQAKKG”, the “soluble on expression in E. coli” value is “soluble”.

Consider “MKQTFITLGEGLTDLFEFMTMIEYNHQRIDKIIYFHSPQAENKKSSVAIIMNPTTGNHFQAFYIMINAIKYPYPDSNKKFQMINDCAEKFDIPILGIDVQPPQAFHDLSLYYNYLISVLRLQKWIPELQLEHHHHHH”, for which the “soluble on expression in E. coli” value is on record as “not soluble”.

In the case of “MSLKEFLIKKIEFTLFEVCIPDIGADPSGFGVWYEPGPGTPQKRFAVRIFTDEGPVGVYVPPRSRATVIMPAAIALAHFLIRKPALERERHYQTMRRITKHVGEAGIGALDIALWDLGGKISGQPISQMLGGHRRKLPSYASTIPGDEHPKGLSSSEAYADFAQQCLEIGYKGYKMHGWKEGNPQRESEMIRAVARQVGGSMDIMYDAACHLKTLTDAIRVGRVCDEHELLWYEDPYADGGLTIRGHRALKEKVRTPVMIGEHVRNPEIHTELLVSGATDFGRVDPDYDGGITGSYKAAMAAESLGYDVEVHSCGPAMRQLMAALSISNYYEINLVHPIGPNPWQLPVYLNGYSDELDCIDREGMVDVSQSPGLGVDYDWEWIEKNSLERIIVDKAKEGHHHHHH”, the “soluble on expression in E. coli” value is “soluble”.

For the sequence “MSKVLELAKELGAEVIQTHTSWVLLLKDVVYKIKKPVNFGFLDYSTLEKRKEMCYKEVELNRRLCPWVYIGVVPISEVKGKWVIENDENVVEYAVKMRRIPDEAILSNRLDKTTEEDLKKVAKVVADFHVRAKRVDEFGKMEVMKYNTDENFAQTEKYIGITISKEDYDFIKRKTNEFYEKHADIFEKRIKEGRIRDGHGDIRTEHVAFLEEGVCIFDCIEFNDRFRYGDVLNDMCFLSMELEYFGREYLARAYEEEYRRISKDPDFDLMLPFFKCYRAYVRGKVNSFLLDDPNLTQEEKEKAKERATKFFKLARTYAEMIK”, the “soluble on expression in E. coli” value is on record as “not soluble”.
